According to publication PMC3765318, “An efficient protocol for the purification and labeling of entire yeast septin rods from E.coli for quantitative in vitro experimentation” (BMC Biotechnology, 2013):

Tests used:
[1] = target: the molecule itself; assay: co-sedimentation + other: fluorescence microscopy; 2 uM SNAP tagged rods labeled with BG-TMR, dialyzed into low salt buffer (50 mM NaCl, 50-200 mM Tris-HCl pH 8.0), 16 h at 4 C, pelleted at 100,000 g, on poly-L-lysine slides
[2] = target: T1, SNAP tagged septin rod labeled with BG-biotin (S. cerevisiae, UniProt P32458 1-415; P32468 1-407; P32457 1-520; P25342 1-322, biotin, covalently attached with BG-Biotin to the SNAP tag); assay: SPR; same dataset as a8; sensograms fitted with a two state reaction model (to compensate for background binding of Bni5 to the antibody-coated surface); contact 120 or 180 s, dissociation 600 s; settings: both partners purified
T1 construct: Cdc11, S. cerevisiae septin; ORF amplified by PCR from genomic DNA; Cdc12, S. cerevisiae septin; Cdc3, S. cerevisiae septin; Cdc10, S. cerevisiae septin; calculated molecular weight 432.5 kDa; also called septin rods; biotinylated septin rods; source: E. coli BL21(DE3), four subunits co-expressed, purified (IMAC, Resource Q anion exchange), labeled with BG-Biotin; not shown: S tag, N-terminal, …

[3] = target: T1, SNAP tagged septin rod labeled with …; assay: SPR; Biacore X100; biotinylated SNAP tagged septin rods captured (about 100 RU) on an anti-biotin antibody coated CM5 chip; Bni5 0-1600 nM as analyte in MSP buffer (10 mM MES, 150 mM NaCl, 0.05% Tween 20, pH 7.4); KD from the analyte response plotted against concentration; settings: both partners purified

B1: SNAP tagged septin rod labeled with BG-TMR (complex, S. cerevisiae)
chain 1: MSGIIDASSALRKRKHLKRGITFTVMIVGQSGSGRSTFINTLCGQQVVDTSTTILLPTDTSTEIDLQLREETVELEDDEGVKIQLNIIDTPGFGDSLDNSPSFEIISDYIRHQYDEILLEESRVRRNPRFKDGRVHCCLYLINPTGHGLKEIDVEFIRQLGSLVNIIPVISKSDSLTRDELKLNKKLIMEDIDRWNLPIYNFPFDEDEISDEDYETNMYLRTLLPFAIIGSNEVYEMGGDVGTIRGRKYPWGILDVEDSSISDFVILRNALLISHLHDLKNYTHEILYERYRTEALSGESVAAESIRPNLTKLNGSSSSSTTTRRNTNPFKQSNNINNDVLNPASDMHGQSTGENNETYMTREEQIRLEEERLKAFEERVQQELLLKRQELLQREKELREIEARLEKEAKIKQEE
chain 2: MSAATATAAPVPPPVGISNLPNQRYKIVNEEGGTFTVMLCGESGLGKTTFINTLFQTVLKRADGQQHRQEPIRKTVEIDITRALLEEKHFELRVNVIDTPGFGDNVNNNKAWQPLVDFIDDQHDSYMRQEQQPYRTKKFDLRVHAVLYFIRPTGHGLKPIDIETMKRLSTRANLIPVIAKADTLTAQELQQFKSRIRQVIEAQEIRIFTPPLDADSKEDAKSGSNPDSAAVEHARQLIEAMPFAIVGSEKKFDNGQGTQVVARKYPWGLVEIENDSHCDFRKLRALLLRTYLLDLISTTQEMHYETYRRLRLEGHENTGEGNEDFTLPAIAPARKLSHNPRYKEEENALKKYFTDQVKAEEQRFRQWEQNIVNERIRLNGDLEEIQGKVKKLEEQVKSLQVKKSHLK
chain 3: MSLKEEQVSIKQDPEQEERQHDQFNDVQIKQESQDHDGVDSQYTNGTQNDDSERFEAAESDVKVEPGLGMGITSSQSEKGQVLPDQPEIKFIRRQINGYVGFANLPKQWHRRSIKNGFSFNLLCVGPDGIGKTTLMKTLFNNDDIEANLVKDYEEELANDQEEEEGQGEGHENQSQEQRHKVKIKSYESVIEENGVKLNLNVIDTEGFGDFLNNDQKSWDPIIKEIDSRFDQYLDAENKINRHSINDKRIHACLYFIEPTGHYLKPLDLKFMQSVYEKCNLIPVIAKSDILTDEEILSFKKTIMNQLIQSNIELFKPPIYSNDDAENSHLSERLFSSLPYAVIGSNDIVENYSGNQVRGRSYPWGVIEVDNDNHSDFNLLKNLLIKQFMEELKERTSKILYENYRSSKLAKLGIKQDNSVFKEFDPISKQQEEKTLHEAKLAKLEIEMKTVFQQKVSEKEKKLQKSETELFARHKEMKEKLTKQLKALEDKKKQLELSINSASPNVNHSPVPTKKKGFLR
chain 4: MDPLSSVQPASYVGFDTITNQIEHRLLKKGFQFNIMVVGQSGLGKSTLINTLFASHLIDSATGDDISALPVTKTTEMKISTHTLVEDRVRLNINVIDTPGFGDFIDNSKAWEPIVKYIKEQHSQYLRKELTAQRERFITDTRVHAILYFLQPNGKELSRLDVEALKRLTEIANVIPVIGKSDTLTLDERTEFRELIQNEFEKYNFKIYPYDSEELTDEELELNRSVRSIIPFAVVGSENEIEINGETFRGRKTRWSAINVEDINQCDFVYLREFLIRTHLQDLIETTSYIHYEGFRARQLIALKENANSRSSAHMSSNAIQR
modifications: tetramethylrhodamine (TMR), covalently attached with BG-TMR to the SNAP tag
notes: Cdc11, S. cerevisiae septin; ORF amplified by PCR from genomic DNA; Cdc12, S. cerevisiae septin; Cdc3, S. cerevisiae septin; Cdc10, S. cerevisiae septin; also called SNAP tagged, TMR labeled septin filaments; TMR labeled septin filaments; source: E. coli BL21(DE3), four subunits co-expressed, purified (IMAC, Resource Q anion exchange), labeled with BG-TMR; copies: 2 + 2 + 2 + 2
[1]
  binding result: binds

B2: Bni5 (natural protein, S. cerevisiae, UniProt P53890 1-448, looked up)
chain: MGLDQDKIKKRLSQIEIDINQMNQMIDENLQLVEPAEDEAVEDNVKDTGVVDAVKVAETALFSGNDGADSNPGDSAQVEEHKTAQVHIPTENEANKSTDDPSQLSVTQPFIAKEQITHTAIAIGDSYNSFVANSAGNEKAKDSCTENKEDGTVNIDQNRGEADVEIIENNDDEWEDEKSDVEEGRVDKGTEENSEIESFKSPMPQNNTLGGENKLDAELVLDKFSSANKDLDIQPQTIVVGGDNEYNHESSRLADQTPHDDNSENCPNRSGGSTPLDSQTKIFIPKKNSKEDGTNINHFNSDGDGQKKMANFETRRPTNPFRVISVSSNSNSRNGSRKSSLNKYDSPVSSPITSASELGSIAKLEKRHDYLSMKCIKLQKEIDYLNKMNAQGSLSMEDGKRLHRAVVKLQEYLDKKTKEKYEVGVLLSRHLRKQIDRGENGQFWIGTK
notes: Bni5, S. cerevisiae; BNI5 PCR amplified from genomic DNA, cloned in a pET15b derived expression plasmid; primers are in Additional file 1; also called purified Bni5 (analyte protein); 6his tagged Bni5; source: E. coli BL21(DE3), purified (IMAC, size exclusion chromatography)
[2]
  Kd: 253 nM
  koff: 0.037 s⁻¹
  kon: 51000 M⁻¹ s⁻¹
[3]
  Kd: 313 nM
